We go through five substances from US5629176A, “Human Kunitz-type protease inhibitor variants” (Novo Nordisk A/S, priority 1994, dated 1997).

In one test the test system is collagenase. The note with it: cited from earlier work.
The next test addresses T1, Porcine trypsin (Sus scrofa, UniProt P00761).
T1 construct: purchased Novo Nordisk A/S
Briefly: Inhibition of serine proteinases: trypsin, peptidyl nitroanilide substrate. Format: biochemical. Particulars: 30 minutes incubation, substrate 0.6 mM, residual activity at 405 nm. The procedure: (§1) The variants were purified from the yeast culture medium as described in example 1. The concentration of KFN 1651 was determined from the absorbance at 214 nm using aprotinin as a standard. Porcine trypsin was obtained from Novo Nordisk A/S. Human plasmin was obtained from Kabi (Stockholm, Sweden). Human neutrophil cathepsin G and elastase were purified from extracts of PMNs according to the method described by Baugh and Travis, Biochemistry 15, 1976, 836-843.
(§2) Peptidyl nitroanilide substrates S2251 ans S2586 were obtained from Kabi (Stockholm, Sweden), and S7388 and M 4765 were obtained from Sigma Chemical Co. (St. Louis, Mo., USA).
(§3) The serine proteinases were incubated with various concentrations of KFN 1900 or 1901 for 30 minutes. Substrate was then added (0.6 mM) and residual proteinase activity was measured at 405 nm.

In a further test the target is T2, Human plasmin (Homo sapiens, UniProt P00747).
T2 construct: purchased Kabi (Stockholm, Sweden)
T2 sequence (P00747 581-810 limits assumed): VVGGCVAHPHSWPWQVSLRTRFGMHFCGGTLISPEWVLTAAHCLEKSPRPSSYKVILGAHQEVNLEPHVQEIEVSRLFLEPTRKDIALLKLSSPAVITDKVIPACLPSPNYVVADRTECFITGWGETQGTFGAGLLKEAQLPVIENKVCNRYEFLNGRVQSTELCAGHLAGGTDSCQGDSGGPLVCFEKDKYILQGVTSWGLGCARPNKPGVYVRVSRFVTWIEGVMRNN
T2 sequence (P00747 97-580 partner limits assumed): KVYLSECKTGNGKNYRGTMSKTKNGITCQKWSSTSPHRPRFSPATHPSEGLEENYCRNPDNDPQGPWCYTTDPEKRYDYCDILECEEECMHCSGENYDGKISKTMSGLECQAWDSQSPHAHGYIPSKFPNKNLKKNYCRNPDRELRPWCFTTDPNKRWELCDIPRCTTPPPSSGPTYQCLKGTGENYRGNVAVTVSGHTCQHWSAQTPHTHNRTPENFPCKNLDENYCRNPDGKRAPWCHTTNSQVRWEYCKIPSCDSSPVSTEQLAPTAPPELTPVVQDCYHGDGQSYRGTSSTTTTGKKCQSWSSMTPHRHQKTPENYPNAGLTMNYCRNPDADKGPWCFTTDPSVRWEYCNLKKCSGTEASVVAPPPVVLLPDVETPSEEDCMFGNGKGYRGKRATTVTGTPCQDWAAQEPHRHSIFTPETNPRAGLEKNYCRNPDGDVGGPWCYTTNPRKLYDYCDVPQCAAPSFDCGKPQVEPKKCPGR
In words: Inhibition of serine proteinases: plasmin, peptidyl nitroanilide substrate. Format: biochemical. The note with it: at 1 μM; 30 minutes incubation, substrate 0.6 mM, 405 nm. The procedure: as §1, §2, §3

The target of test [1] is T3, Human neutrophil elastase (Homo sapiens, UniProt P08246).
T3 construct: Human neutrophil cathepsin G and elastase were purified from extracts of PMNs; from tissue; host or cells: human polymorphonuclear leukocytes (PMNs)
T3 sequence (P08246 30-267): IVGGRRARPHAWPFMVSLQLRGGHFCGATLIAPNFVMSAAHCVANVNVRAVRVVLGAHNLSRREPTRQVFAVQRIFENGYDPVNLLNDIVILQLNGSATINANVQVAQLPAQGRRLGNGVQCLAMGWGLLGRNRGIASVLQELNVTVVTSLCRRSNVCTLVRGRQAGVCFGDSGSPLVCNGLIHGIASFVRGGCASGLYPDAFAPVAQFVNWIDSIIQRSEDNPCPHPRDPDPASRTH
In words: Inhibition of serine proteinases: neutrophil elastase, peptidyl nitroanilide substrate. Format: biochemical. Particulars: 30 minutes incubation, substrate 0.6 mM, 405 nm. On the procedure:
as §1, §2, §3

In test [2] the target is T4, Human neutrophil cathepsin G (Homo sapiens, UniProt P08311).
T4 construct: Human neutrophil cathepsin G and elastase were purified from extracts of PMNs; from tissue; host or cells: human polymorphonuclear leukocytes (PMNs)
T4 sequence (P08311 21-255): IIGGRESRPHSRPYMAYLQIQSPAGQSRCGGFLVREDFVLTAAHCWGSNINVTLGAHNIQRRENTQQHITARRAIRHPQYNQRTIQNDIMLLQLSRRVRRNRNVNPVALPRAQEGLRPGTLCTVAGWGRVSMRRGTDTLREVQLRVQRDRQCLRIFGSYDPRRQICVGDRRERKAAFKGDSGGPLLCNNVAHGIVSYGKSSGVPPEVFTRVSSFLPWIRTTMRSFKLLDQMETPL
In words: Inhibition of serine proteinases: cathepsin G, peptidyl nitroanilide substrate. The note with it: 30 minutes incubation, substrate 0.6 mM, 405 nm. The test is classed as biochemical. On the procedure:
as §1, §2, §3

Test [3] deals with Porcine trypsin (porcine) (UniProt P00761). In words: inhibition of the proteinase, 30 minutes preincubation, residual activity on a peptidyl nitroanilide substrate at 405 nm.

T1 sequence (P00761 9-231): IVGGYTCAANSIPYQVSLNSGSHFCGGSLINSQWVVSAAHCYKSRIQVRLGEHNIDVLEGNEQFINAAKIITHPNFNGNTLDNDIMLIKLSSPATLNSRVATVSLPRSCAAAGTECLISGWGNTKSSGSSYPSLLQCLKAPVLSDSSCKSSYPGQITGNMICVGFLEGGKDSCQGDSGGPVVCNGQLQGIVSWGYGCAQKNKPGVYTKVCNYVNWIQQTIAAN

On to aprotinin(1-58, Val15), for which, in the test on collagenase, the “inhibitory effect on collagenase” value is “inhibitory effect”.
With “KFN 1901: [D16A] analog of the human α3(VI) collagen Kunitz-type protease inhibitor domain, produced from yeast strain KFN-1901”, the Ki with Porcine trypsin was found to be 355 nM. Besides, the inhibition of plasmin entry in the test with Human plasmin was “weak inhibitors”. In addition, the “inhibition of neutrophil elastase” value in test [1] was “did not inhibit”. For the same substance, the “inhibition of cathepsin G” value in test [2] is “did not inhibit”.
On to “[R15K, D16A]-α3(VI) Kunitz-type domain analog (from UniProt P12111)”, for which the Ki in test [3] is 50 nM.
Still for that read-out and setting: the result for “[D16A]-α3(VI) Kunitz-type domain analog (from UniProt P12111)” reads 355 nM.
For the substance “KFN 1900: [R15K, D16A] analog of the human α3(VI) collagen Kunitz-type protease inhibitor domain, produced from yeast strain KFN-1900”, affinity in the test with Porcine trypsin was put at a Ki of 50 nM. Moreover, the inhibition of plasmin result with Human plasmin was “weak inhibitors”. Also, the “inhibition of neutrophil elastase” value in test [1] is listed as “did not inhibit”. Besides, the “inhibition of cathepsin G” value in test [2] is “did not inhibit”.

Broadly, the Ki is a dissociation constant, usually derived from enzyme kinetics or from competition with a known ligand. A lower Ki goes with tighter binding.
